Molecular target: SARS-CoV-2 RBD (SARS-CoV-2, reference (Wuhan-Hu-1) …, UniProt P0DTC2)
Assay: ELISA

B1: DH1047 IgG (antibody, V domains shown)
VH: QVQLVQSGAEVKKPGASVQVSCQASANTFTNHYIHWVRQAPGQGLEWMGIIYPTGGNTIYAQGFQGRVTMTRDTSLNTIYLELSSLRSEDTAVYYCARDVRVDDSWSGYDLLSGGTYFDYWGQGTLVTVSS
VL: not shown
Does B1 bind?
Result: binds

Source: PMC8095197 (bioRxiv, 2021)
